The values that follow come from article doi:10.1101/2022.12.27.521990.

The target of this test is Soluble, trimeric spike of SARS-CoV-2/human/China/Wuhan-Hu-1/2019 (residues 1-1204, 6 proline mutations) (SARS-CoV-2) (UniProt P0DTC2). Kind of test: SEC.

In the case of “Soluble, trimeric spike of SARS-CoV-2/human/China/Wuhan-Hu-1/2019 (residues 1-1204, 6 proline mutations) (from UniProt P0DTC2 14-1204) (domain or fragment)”, the stoichiometry N (usually a count of units in the complex or per binding partner) came out at 3.
